Assay results reported in patent US20150132307A1 (Hoffmann-La Roche, published 2015).
Where a chain is given by its changes, count along the chain named.

T1: Human recombinant soluble TWEAK (Example 6) (human, UniProt O43508 99-249, limits assumed)
T1 sequence: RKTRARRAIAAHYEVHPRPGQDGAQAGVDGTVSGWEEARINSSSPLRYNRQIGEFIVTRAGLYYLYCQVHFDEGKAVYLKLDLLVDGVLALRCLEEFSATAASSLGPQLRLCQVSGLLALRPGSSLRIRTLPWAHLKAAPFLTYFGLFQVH

T2: Biotinylated human soluble TWEAK (amino acids 99-249 of SEQ ID NO: 68) (human, UniProt O43508 99-249, biotinylated)
T2 construct: also called Human TWEAK
T2 sequence: T1 sequence

T3: Recombinant human TWEAK (R&D Systems; Cat. #1090-TW/CF) (human, UniProt O43508 97-249, limits assumed)
T3 sequence: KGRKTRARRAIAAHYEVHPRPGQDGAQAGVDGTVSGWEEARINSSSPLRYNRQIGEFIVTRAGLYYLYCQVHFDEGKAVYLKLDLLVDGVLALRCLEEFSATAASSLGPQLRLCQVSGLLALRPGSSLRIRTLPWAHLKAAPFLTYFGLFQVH

T4: Mouse soluble TWEAK (untagged, Example 5) (mouse, UniProt O54907 105-249, limits assumed)
T4 construct: also called Murine TWEAK
T4 sequence: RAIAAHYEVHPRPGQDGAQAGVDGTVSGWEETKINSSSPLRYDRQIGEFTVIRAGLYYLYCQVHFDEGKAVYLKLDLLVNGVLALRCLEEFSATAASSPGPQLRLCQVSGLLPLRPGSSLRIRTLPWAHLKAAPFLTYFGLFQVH

T5: human Flag-tagged soluble TWEAK (amino acids 106-249) (human, UniProt O43508 106-249)
T5 construct: The sentence gives amino acids 106-249 without naming the entry; also called Human TWEAK; not shown: Flag tag
T5 sequence: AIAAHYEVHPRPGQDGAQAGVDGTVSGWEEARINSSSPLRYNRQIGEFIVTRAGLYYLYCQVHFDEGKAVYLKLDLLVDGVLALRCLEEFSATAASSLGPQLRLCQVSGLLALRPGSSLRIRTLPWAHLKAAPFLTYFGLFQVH

B1: <TWEAK> 305 (rabbit) (antibody, V domains shown)
VH: QEQLVESGGGLVQPGGSLTLSCKASGFDFSTYYMSWVRQAPGKGLEWIGTVYVRQGTTYYASWLNGRFTISSDNAQNTVDLKMNSLTAADTATYFCAKGGYNYDDAFVIWGPGTLVTVSF
VL: AIEMTQTPFSVSAAVGGTVTINCQASQNIYSNLAWYQQKPGQPPKLLMYTASYLASGVPSRFKGSGSRTEYTLTISGVQCADAATYYCQTAYYNSRPDTVAFGGGTEVVVK
notes: Rabbit parent antibody
B2: <TWEAK> 304chi (antibody, human IgG1, kappa, V domains shown)
VH: QSLEESGGDLVKPGASLTLTCKASGFSFSSTYYMCWVRQAPGKGLEWIGCIYVGSSGAPYYASWAKGRFTISKTSSTTVALQMTSLTPADTATYVCTRSVHFGDLWGPGTLVTVSS
VL: DVVMTQTPSPVSAAVGGTVTIKCQASQSIGNDLSWYQQKPGQRPKLLIYSVSTLASGVPSRFKGSGSGTEYSLTISDVQCADAATYYCQCIDYGNNYVGNTFGGGTEVVVKR
notes: Chimer: rabbit variable domains with human kappa and human IgG1 constant regions
B3: Bispecific <Tweak-IL-17> #5 antibody (bispecific antibody, human IgG1, kappa)
heavy: not shown
light: DIQMTQSPSSVSASVGDRVTITCQASQNIYSNLAWYQQKPGKAPKLLIYTASYLASGVPSRFSGSGSGTDYTLTISSLQPEDFATYYCQTAYYNSRPDTVAFGGGTKVEIKRTVAAPSVFIFPPSDEQLKSGTASVVCLLNNFYPREAKVQWKVDNALQSGNSQESVTEQDSKDSTYSLSSTLTLSKADYEKHKVYACEVTHQGLSSPVTKSFNRGEC
B4: Bispecific <Tweak-IL-17> #21 antibody (bispecific antibody, human IgG4 S228P, kappa)
heavy 1: EVQLVESGGGLVQPGGSLRLSCAASGFSLDSYGVHWVRQAPGKGLEWVSVIWSDGTTTYNSALKSRFTISRDNSKNTLYLQMNSLRAEDTAVYYCARDTHYRLYYYAMDYWGQGTTVTVSSASTKGPSVFPLAPCSRSTSESTAALGCLVKDYFPEPVTVSWNSGALTSGVHTFPAVLQSSGLYSLSSVVTVPSSSLGTKTYTCNVDHKPSNTKVDKRVESKYGPPCPPCPAPEFEGGPSVFLFPPKPKDTLMISRTPEVTCVVVDVSQEDPEVQFNWYVDGVEVHNAKTKPREEQFNSTYRVVSVLTVLHQDWLNGKEYKCKVSNKGLPSSIEKTISKAKGQPREPQVCTLPPSQEEMTKNQVSLSCAVKGFYPSDIAVEWESNGQPENNYKTTPPVLDSDGSFFLVSRLTVDKSRWQEGNVFSCSVMHEALHNHYTQKSLSLSLGK
heavy 2: not shown
light: DIVMTQSPLSLPVTPGEPASISCRSSQSLVHSNGDTYFHWYLQKPGQSPQLLIYKVSNRFSGVPDRFSGSGSGTDFTLKISRVEAEDVGVYYCSQTTHAPFTFGQGTKLEIKRTVAAPSVFIFPPSDEQLKSGTASVVCLLNNFYPREAKVQWKVDNALQSGNSQESVTEQDSKDSTYSLSSTLTLSKADYEKHKVYACEVTHQGLSSPVTKSFNRGEC
B5: Humanized <TWEAK> 305- antibody 28 (antibody, V domains shown)
VH: EVQLLESGGGLVQPGGSLTLSCAASGFDFSTYYMSWVRQAPGKGLEWVSTVYVRQGTTYYASWLNGRFTISRDNSKNTLYLQMNSLRAEDTAVYYCAKGGYNYDDAFVIWGQGTLVTVSS
VL: DIQMTQSPSSVSASVGDRVTITCQASQNIYSNLAWYQQKPGKAPKLLIYTASYLASGVPSRFSGSGSGTDYTLTISSLQPEDFATYYCQTAYYNSRPDTVAFGGGTKVEIK
B6: Humanized <TWEAK> 305- antibody 29 (antibody, V domains shown)
VH: B5 VH with T19R, Y80D
VL: B5 VL
B7: Humanized <TWEAK> 305- antibody 30 (antibody, V domains shown)
VH: B5 VH with T19R, R87T
VL: B5 VL with Y71F
B8: Humanized <TWEAK> 305- antibody 31 (antibody, V domains shown)
VH: B5 VH
VL: B5 VL with D1A, Q3R, V11F, V15T, S77C, P80S
B9: Humanized <TWEAK> 305- antibody 32 (antibody, V domains shown)
VH: B5 VH with T19R, Y80D
VL: B5 VL with S10T, V11L, D70E, Y71F, E81D
B10: Humanized <TWEAK> 305- antibody 34 (antibody, V domains shown)
VH: B5 VH with T19R
VL: B5 VL with D1A, Q3R, V11F, V15T, S77C, P80S
B11: Humanized <TWEAK> 305- antibody 33 (antibody, V domains shown)
VH: QVQLVQSGAEVKKPGSSVKVSCKASGFDFSTYYMSWVRQAPGQGLEWMGTVYVRQGTTYYASWLNGRVTITADESTSTAYMELSSLRSEDTAVYYCARGGYNYDDAFVIWGQGTLVTVSS
VL: B5 VL with D1A, Q3R, V11F, V15T, S77C, P80S

target: T1, Human recombinant soluble TWEAK …; assay: cell-based or functional assay

Binder | Inhibition of IL-8 Secretion IC50 [ng/ml] (A375 cells) [ng/mL]
B1 | 99
B2 | 122

target: recombinant human IL-17 (Peprotech #200-17) (human, UniProt Q16552 20-155); assay: cell-based or functional assay
Sequence (Q16552 20-155 limits assumed): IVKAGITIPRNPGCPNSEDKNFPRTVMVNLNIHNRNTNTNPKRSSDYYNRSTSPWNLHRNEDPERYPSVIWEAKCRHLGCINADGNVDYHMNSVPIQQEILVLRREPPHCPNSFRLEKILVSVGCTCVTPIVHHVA

Binder | IL-6 IC50 [nM] per valency (IL-17 induced cytokine production, HFLS-RA) [nM] | IL-8 IC50 [nM] per valency (IL-17 induced cytokine production, HFLS-RA) [nM]
B3 | 1.32 | 1.12
B4 | 2.71 | 1.71

target: T2, Biotinylated human soluble TWEAK (amino …); assay: SPR (Biacore 2000), biotinylated soluble TWEAK on streptavidin chip, antibody 100 nM as analyte, 25 C
Description: (§1) A Biacore 2000 instrument was used with a Biacore streptavidin coated sensor mounted into the system. The system buffer HBS-ET (10 mM HEPES pH 7.4, 150 mM NaCl, 1 mM EDTA, 0.05% Tween® 20) was used at a flow rate of 100 μl/min. The sample buffer was the system buffer. Biotinylated human soluble TWEAK (amino acids 99-249 of SEQ ID NO: 68) and biotinylated murine soluble TWEAK (amino acids 81-225 of SEQ ID NO: 69) was immobilized on different flow cells on the SA sensor at 150 RU each. The flow cell FC1 was used as a blank reference cell. Each antibody was injected into the system as an analyte at 100 nM at 100 μl/min for 2 min association time. The dissociation of the immunecomplexes were monitored for 5 min. The sensor surface was washed with HBS-ET for 10 seconds and regenerated using 2×2 minutes injections with 10 mM glycine pH 2.25. This procedure was done at 25° C. The kinetically rate limiting step of the complex dissociation phase in the interval [240 s-300 s] was taken to calculate the dissociation rate kd [1/s] (Biacore Evaluation Software 4.0). According to the equation t1/2 diss=ln(2)/(60×kd), the half-life of the immunocomplexes in minutes was calculated.

Binder | t/2 diss [min] 25° C. [min]
B2 | 37

target: T3, Recombinant human TWEAK (R&D Systems; …); assay: cell-based or functional assay

Binder | IC50 (nM) per valency, Tweak induced HFLS proliferation (CellTiter Glo) [nM]
B3 | 0.152

target: T4, Mouse soluble TWEAK (untagged, Example …); assay: receptor interaction ELISA: mouse soluble TWEAK preincubated with antibody, then on coated mouse Fn14:Fc (competitor m22)
Description: Briefly, Maxisorp plates were coated with mouse Fn14:Fc (extracellular domain of mouse Fn14 (amino acids 1-75 of SEQ ID NO: 98) fused to Fc portion of human IgG1) as described above for human Fn14:Fc, followed by blocking and washing. […] After 1 h of incubation at room temperature and four washes, biotinylated anti-mouse TWEAK antibody at 125 ng/ml in blocking buffer was added for 1 h at room temperature, followed by another four wash steps. The TWEAK antibody was detected by incubation with streptavidin-HRP, diluted 1:5000 in blocking buffer, for 30 minutes at room temperature. Signal was developed and absorbance measured as described above.

Binder | IC50 [ng/mL]
B5 | 6.5
B6 | 5.7
B7 | 7.6
B8 | 7.1
B9 | 5.4
B10 | 5.9
B11 | 6.7

target: T2, Biotinylated human soluble TWEAK (amino …); assay: SPR (Biacore), biotinylated soluble TWEAK on streptavidin chip, 37 C

Binder | Biacore t/2 diss. [min] 37° C. human [min]
B5 | 115
B6 | 195
B7 | 45
B8 | 151
B9 | 50
B10 | 185
B11 | 99

target: T5, human Flag-tagged soluble TWEAK (amino …); assay: receptor interaction ELISA: Flag-TWEAK preincubated with antibody, then on coated human Fn14:Fc (competitor m21)
Description: (§2) 96-well Maxisorp® plates (Nunc) were coated with 100 μl 1 μg/ml human Fn14:Fc (extracellular domain of human Fn14 (amino acids 1-75 of SEQ ID NO: 98) fused to Fc portion of human IgG1) in PBS per well for 1.5 h at room temperature and blocked with a solution of 5% FBS in PBS for 30 minutes at room temperature under shaking. […] After washing the Fn14-coated plate once with wash buffer (0.1% Tween® 20 in PBS), 100 μl of the TWEAK-antibody solution were transferred to each well and the plate was incubated for 1 h at room temperature, followed by four washes with wash buffer. Wells were filled with 100 μl of anti-FLAG-HRP detection antibody, diluted 1:5000 in blocking buffer, and incubated for 1 h at room temperature. After four more wash steps, the signal was developed by addition of 100 μl 3,3,5,5-Tetramethylbenzidine (TMB) solution for approximately ten minutes. The reaction was stopped by adding 100 μl of 1 N HCl, and absorbance measured at 450 nm (reference wavelength 620 nm).

Binder | IC50 [ng/mL]
B5 | 1.5
B6 | 1.8
B7 | 2.3
B8 | 1.7
B9 | 1.5
B10 | 1.9
B11 | 1.7

target: T5, human Flag-tagged soluble TWEAK (amino …); assay: receptor interaction ELISA: Flag-TWEAK 2.5 ng/ml preincubated with antibody, then on coated human Fn14:Fc (competitor m21)
Description: as §2

Binder | IC50 [ng/mL]
B1 | 2.5
B2 | 2.6

target: T2, Biotinylated human soluble TWEAK (amino …); assay: SPR (Biacore), biotinylated soluble TWEAK on streptavidin chip, 25 C
Description: as §1

Binder | Biacore t/2 diss. [min] 25° C. human [min]
B5 | 87
B6 | 146
B7 | 50
B8 | 115
B9 | 67
B10 | 158
B11 | 127

target: T1, Human recombinant soluble TWEAK …; assay: cell-based or functional assay; remark: another data set of the same source

Binder | Inhibition of IL8-Secretion [ng/ml] (A375 cells) [ng/mL]
B5 | 165
B6 | 78
B7 | 207
B8 | 94
B9 | 134
B10 | 24
B11 | 26
